This sample holds only a part of the variants without activity.
B1: TPR 5TU (parent)
chain: GGAUCUUCUCGAUCUAACAAAAAAGACAAAUCUGCCACAAAGCUUGAGAGCAUCUUCGGAUGCAGAGGCGGCAGCCUUCGGUGGCGCGAUAGCGCCAACGUUCUCAACUAUGACACGCAAAACGCGUGCUCCGUUGAAUGGAGUUUAUCAUG

Variants of: B1
Experiment: polymerase ribozyme fitness, log enrichment relative to wild type (log ratio); higher = more active; in vitro selection for triplet polymerase activity
Outline: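 To select mutant libraries of each subunit of a heterodimeric triplet polymerase ribozyme, built by PCR and transcribed, each was annealed with a biotinylated primer, partner subunit and triplets, then incubated frozen at −7 °C. Extended constructs were gel-excised, captured on streptavidin beads and amplified by RT-PCR, in one round carried out in triplicate. Illumina sequencing of input and output libraries kept genotypes with ≥10 input reads and ≥1 read per output. Fitness is the base-2 logarithm of genotype enrichment relative to wild-type enrichment, from inverse-variance-weighted replicate averages.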

Variant | polymerase ribozyme fitness (log ratio)
GGAUCUUCUCGAUCUAACAAAAAAGACAAAUCUGCCACAAAGCUUGAGAGCAUCUAGGGAUGCAGAGGCGGCAGCCUUCGGUGGCGCGAUAGCGCCAACGUUCUCAACUAUGCCACGCAAAACGCGUGCUCCGUUGAAUGGAGUUUAUCAUG [U56A C57G A113C] | -1.82
GGAUCUUCUCGAUCUAACAAAAAAGACAAAUCUGCCACAAAGCUUGAGAGCAUCUACGGAUGCAGAGGCGGCAGCCUUCGGUGGCGCGAUAGCGCCAACGUUCUCAACUAUGACCCGCAAAACGCGUGCUCCGUUGAAUGGAGUUUAUCAUG [U56A A115C] | -0.798
GGAUCUUCUCGAUCUAACAAAAAAGACAAAUCUGCCACAAAGCUUGAGAGCAUCUACGGAUGCAGAGGCGGCAGCCUUCGGUGGUGCGAUAGCGCCAACGUUCUCAACUAUGACACGCAAAACGCGUGCUCCGUUGAAUGGUGUUUAUCAUG [U56A C85U A142U] | -1.06
GGAUCUUCUCGAUCUAACAAAAAAGACAAAUCUGCCACAAAGCUUGAGAGCAUCUACGGAUGCAGAGGGGGCAGCCUUCGGUGGCGCGAUAGCGCCAACGUUCUCAACUAUGACACGCAAAACGCGUGCUCCGUUGAAUGGAGUUUAACAUG [U56A C69G U148A] | -4.17
GGAUCUUCUCGAUCUAACAAAAAAGACAAAUCUGCCACAAAGCUUGAGAGCAUCUAGGGAUGCAGAGGCGGCAGCCUUCGGUGGCGAGAUAGCGCCAACGUUCUCAACUAUGACACGCGAAACGCAUGCUCCGUUGAAUGGAGUUUAUCAUG [U56A C57G C87A A119G G126A] | ≤ -4.2
GGAUCUUCUCGAUCUAACAAAAAAGACAAAUCUGCCACAAAGCUUGAGAGCAUCUACGGAUGCAGAGGCGGCAGCCUUCGGUGGCGCGAUAGCGCCAACGUUCUCAACUAUGGCACGCAAAACGCGUGCUCCGUUGAAUGGAGUUUAUCAUG [U56A A113G] | -1.32
GGAUCUUCUCGAUCUAACAAAAAAGACAAAUCUGCCACAAAGCUUGAGAGCAUCUACGGAUGCAGAGGCGGGAGCCUUCGGUGGCGCGAUAGCGCCAACGUUCUCAACUAUGACACGCAAAACGCGUGCUCCGUUGAAUGGAGUUUAUCAUG [U56A C72G] | -3.76
GGAUCUUCUCGAUCUAACAAAAAAGACAAAUCUGCCACAAAGCUUGAGAGCAUCUAUGGAUGCAGAGGCGGCAGCCUUCGGUAGCGCGAUAGCGCCAACGUUCUCAACUAUGACACGCAAAACGCGUGCUCCGUUGAAUGGAGUUUAUCAUG [U56A C57U G83A] | 0.0377
GGAUCUUCUCGAUCUAACAAAAAAGACAAAUCUGCCACAAAGCUUGAGAGCAUCUAGGGAUGCAGUGGCGGCAGCCUUCGGUGACGCGAUAGCGCCAGCGUUAUCAACUAUGACACGCAAAACGAGUGCUCCGUUGAAUGGAGUUUAUCAUG [U56A C57G A66U G84A A98G C103A C125A] | ≤ -4.2
GGAUCUUCUCGAUCUAACAAAAAAGACAAAUCUGCCACAAAGCUUGAGAGCAUCUACGGAUGCAGAGGCGGCAGCCUUCGGUGGCGUGAUAGCGCCAUCGUUCUCAACUAUGACAGGCAAAACGCGUGCUCCGUUGAAUGGAGUUUAUCAUG [U56A C87U A98U C116G] | 0.0809
GGAUCUUCUCGAUCUAACAAAAAAGACAAAUCUGCCACAAAGCUUGAGAGCAUCUACGGAUGCAGAGGCGGCAGCCUUCGGUGGCGGGAUAGCCCCAACGUUCCCAACUAUGACACUCUAAACGCGUGCUCCGCUGAAUGGAGUUUAUCAUG [U56A C87G G94C U104C G117U A119U U134C] | -3.94
GGAUCUUCUCGAUCUAACAAAAAAGACAAAUCUGCCACAAAGCUUGAGAGCAUCUACGGAUGCAGAGGUGGCAGCCUUCGGUGGCGCGAUAGCGCCAACGUUCUCAACUAUGACACGCAAAACGCGUGUUCCGUUGAAUGGAGUUUAUCAUG [U56A C69U C129U] | -0.94
GGAUCUUCUCGAUCUAACAAAAAAGACAAAUCUGCCACAAAGCUUGAGAGCAUCUACGGAUGCAGAGGCGGCAGCAUUCGGUGGCGCGAUAGCGCCAACGUUCUCAACUAUGACACGCUACACGCUUGCUCCGUUGAAUGGAGUUUAUCAUG [U56A C76A A119U A121C G126U] | -1.11
GGAUCUUCUCGAUCUAACAAAAAAGACAAAUCUGCCACAAAGCUUGAGAGCAUCUAUGGAAGCAGAGGCGGCAGACUUCGGUGGCGCUAUAGCGCCAACGUUCUCAACUAUGACACGCAUAACGCGUGCUCCGUUGAAAGGACUUUAUCAUG [U56A C57U U61A C75A G88U A120U U139A G143C] | ≤ -4.2
GGAUCUUCUCGAUCUAACAAAAAAGACAAAUCUGCCACAAAGCUUGAGAGCAUCUACGGAUGCAGAGGCGGCAGCCUUCGGUGGUGCGAUAGCGCCAACGUUCUCAACUAUGACACGCAAAACGCGUUCUCCGUUGAAUGGAGUUUAUCAUG [U56A C85U G128U] | -2.89
GGAUCUUCUCGAUCUAACAAAAAAGACAAAUCUGCCACAAAGCUUGAGAGCAUCUACGGAUGCAGAGGCGGCAGCCUUCGGUGGCGCGAUAGCGCCAACGUUCUCAACUAUGACACGCAAAACGCGUGCUCCGUUGAAUGGUGUUUAUCAUG [U56A A142U] | -0.643
GGAUCUUCUCGAUCUAACAAAAAAGACAAAUCUGCCACAAAGCUUGAGAGCAUCUACGGAUGCAGAGGCGGCAGCCUUCGGUGGGGCGAUAGGGCCAACGUUCUCAUCUAGGACACGCAAAACGCGUGCUCCGUUGAAUGGAGUUUAUCAUG [U56A C85G C93G A107U U111G] | ≤ -4.2
GGAUCUUCUCGAUCUAACAAAAAAGACAAAUCUGCCACAAAGCUUGAGAGCAUCUAUGGAUGCAGAGGCGGCAGCCUUCGGUGGCCCGAUAGCGCCACCGUUCUCAACUAUGACACGCAAAACGCGUGCUCCGUUGAAUGAAGUUUAUCAUA [U56A C57U G86C A98C G141A G152A] | -3.31
GGAUCUUCUCGAUCUAACAAAAAAGACAAAUCUGCCACAAAGCUUGAGAGCAUCUACGGAUGCAGAGGCGGCAGCUUUCGGUGGCGCGAUAGCGCCAACGUUCUCAACUAUGACACGCAAAACGCGUGCUCCGUUGAAUGGAGUUUAUCAUG [U56A C76U] | 0.105

Variant | polymerase ribozyme fitness (log ratio)
GGAUCUUCUCGAUCUAACAAAAAAGACAAAUCUGCCACAAAGCUUGAGAGCAUCUACGGAUGCAGAGGCGGCAGCCUUCGGUGGCGCGAUAGCGCCAACGUUCUCAACUAUGACACGCAAAACGCGUGCUCCGUUGAAUGGAGUUUAUCCUG [U56A A150C] | -3.35
GGAUCUUCUCGAUCUAACAAAAAAGACAAAUCUGCCACAAAGCUUGAGAGCAUCUACGGAUGCAGAGGCGGCAGCCUUCGGUGGCGCGAUAGCGCCAACGUUCUCAACUCUGACACGCAAAACGCGUGCUCCGUUGAAUGGAGUUUAUCAUG [U56A A110C] | -3.84
GGAUCUUCUCGAUCUAACAAAAAAGACAAAUCUGCCACAAAGCUUGAGAGCAUCUAAGGAUGCAGAGGCGGCAGCCUUCGGUGGCGCGAUAGCGCCAACGUUCUCAACUAUGACACGCAAAACGCGUGCUCCGUUGAAUGGAGAUUAUCAUG [U56A C57A U144A] | -0.177
GGAUCUUCUCGAUCUAACAAAAAAGACAAAUCUGCCACAAAGCUUGAGAGCAUCUAAGGAUGCAGAGGCGGCAGCCUUCGGUGACGCGAUAGCGCCAACGUUCUCAACUAUGACACGCAAAACGCGUGCUCCGUUGAAUGGAGUUUAUCAUG [U56A C57A G84A] | -0.56
GGAUCUUCUCGAUCUAACAAAAAAGACAAAUCUGCCACAAAGCUUGAGAGCAUCUAAGGAUGCAGAGGCGGCAGCCUUCGGUGGUGUGAUAGCGCCAACGUUCUCAACUAUGACACGCAAAACGCGUGCUCCGUUGAAUGGAGUUUAUCAUG [U56A C57A C85U C87U] | -0.523
GGAUCUUCUCGAUCUAACAAAAAAGACAAAUCUGCCACAAAGCUUGAGAGCAUCUACGGAUGCAGAGGCGGCAGGCUUCGGUGGCGCGAUAGAGCCAGCGUUCUCCACUAUGACACGCAAAACGCGUGCUCCGUUGAAUGAAGUUUAUCAUG [U56A C75G C93A A98G A106C G141A] | ≤ -4.2
GGAUCUUCUCGAUCUAACAAAAAAGACAAAUCUGCCACAAAGCUUGAGAGCAUCUACGGAUGCAGAGGCGGCAGCCUUCGGUGGCGCGAUAGCGCCAACGUUCUCAACUAUGACGCGCAAAACCCGUGCUCCGUUGAAUGGAGUUUAUCAUG [U56A A115G G124C] | -1.61
GGAUCUUCUCGAUCUAACAAAAAAGACAAAUCUGCCACAAAGCUUGAGAGCAUCUACGGAUGCAGAGGCGGCAGCCUUUGGUGGCGCGAUAGCGCCAACGUUCUCAACUAUGACACGGAAAACGCGUGCUCAGUUGAAUGGAGUUUAUCAUG [U56A C79U C118G C132A] | -4.05
GGAUCUUCUCGAUCUAACAAAAAAGACAAAUCUGCCACAAAGCUUGAGAGCAUCUACGGAUGCAGAGGCGGCAGCCUUCGGUGGCGAGAUAGCGCCAACGUUCUGAACUAUGACACGCAAAACGCGUCCUCCGUUGAAUGGAGUUUAUCAUG [U56A C87A C105G G128C] | ≤ -4.2
GGAUCUUCUCGAUCUAACAAAAAAGACAAAUCUGCCACAAAGCUUGAGAGCAUCUACGGAUGCAGAGGUGGCAGCCUUCGGUGGCGCGAUAGCGCCAACGUUCUCGACUAUGACACGCAAAACGCGUGCUCCGUUGAAUGGAGUUUAUCAUG [U56A C69U A106G] | -1.79
GGAUCUUCUCGAUCUAACAAAAAAGACAAAUCUGCCACAAAGCUUGAGAGCAUCUACGGAUGCAGAGGCGGCAGUCUUCGGUGGCGCGAUAGCGCCAACGUUCUCAACUAUGACACGCAAAACGCGUGCUCCGUUGAAUGGAAUUUAUCAUG [U56A C75U G143A] | -0.711
GGAUCUUCUCGAUCUAACAAAAAAGACAAAUCUGCCACAAAGCUUGAGAGCAUCUAUGGAUGCAGAGGCGGCAGCCUUCGGAGACGCGAUAUCGCCAACGUUCUCCACUAUGACACGCAAAACGCGUGCUCCGUUGAAUGGACUUUAUCAUG [U56A C57U U82A G84A G92U A106C G143C] | ≤ -4.2
GGAUCUUCUCGAUCUAACAAAAAAGACAAAUCUGCCACAAAGCUUGAGAGCAUCUAUGGAUGCAGAGGCGGCAGCCUUCGGUGGCGCGAUAGCGCCAACGUUCUCAACUAUGACACGCAAAACGCGUGCUCCGUUGAAUGGAGUUUAUCAUG [U56A C57U] | 0.273
GGAUCUUCUCGAUCUAACAAAAAAGACAAAUCUGCCACAAAGCUUGAGAGCAUCUACGGAUGCAGAGGCGGCAGCCUUCGGUGGUGCGAUAGCGCCAACGUUCUCAACUAUGACACGCAAUAGACGUGCUCCGAUGAAUGGAGUUUAUCAUG [U56A C85U A121U C123G G124A U134A] | -2.61
GGAUCUUCUCGAUCUAACAAAAAAGACAAAUCUGCCACAAAGCUUGAGAGCAUCUACGGAUGCAGAGGCGGCAGCCUUCGGUGGGGCGAUAGCGCCAACGUUCUCAACUAUGACACGCAAAACGCGUGCUCCGUUGAAUGGAGUUUAUCAUG [U56A C85G] | -2.44
GGAUCUUCUCGAUCUAACAAAAAAGACAAAUCUGCCACAAAGCUUGAGAGCAUCUACGGAUGCAGAGGCGGCAGCCUUCGGUGGAGCGAUAGCGCCAACGUUCUCAACUAUGACACGCAAAACGCGUGCUCCGUUGAAUGGAGUUUAUCAUG [U56A C85A] | -2.02
GGAUCUUCUCGAUCUAACAAAAAAGACAAAUCUGCCACAAAGCUUGAGAGCAUCUACGGAUGCAGAGGCGGCAGCCUUCGGUGGUGCGAUAGCGCCAACGUUCUCAACUAUGACACGCAAAACGCGUGCUCCGUUGAAUGGAGUUUAUCAUG [U56A C85U] | -0.564
GGAUCUUCUCGAUCUAACAAAAAAGACAAAUCUGCCACAAAGCUUGAGAGCAUCUACGGAUGCAGAGGCGGCAGCCUUUGGUAGCGCGAUAGCGCCAACGUUCUCAACUAUGACACGCAAAACGCGUGCUCCGUUGAAUGGAGUUUAUCAUG [U56A C79U G83A] | ≤ -4.2
GGAUCUUCUCGAUCUAACAAAAAAGACAAAUCUGCCACAAAGCUUGAGAGCAUCUACGGAUGCAGAGGAGGCAGCCUUCGGUGACGCGAUAGCGCCAACGUUCUCAACUAUGACACGCAAAACGCGUGCUCCGUUGAAUGGAGUUUAUCAUG [U56A C69A G84A] | -1.63

From the RNAGym collection of RNA variant scans (doi:10.1073/pnas.2313332121)
